From patent publication US20150104459A1 (published 2015)

Legend:
Experiment in all cases: cell-based or functional assay
[1] = molecular target: hemagglutinin (HA) of live influenza A/Solomon Islands/3/06 (H1N1) virus (influenza A virus A/Solomon …)
[2] = molecular target: hemagglutinin (HA) of live influenza A/Wisconsin/67/05 (H3N2) virus (influenza A virus A/Wisconsin/67/2005 …)
[3] = molecular target: Hemagglutinin of influenza A/Solomon Islands/3/06 (H1N1) on whole virions (Influenza A virus A/Solomon …)

B1: TCN-535 (5246_P19) (antibody, V domains shown)
VH: QVQLVQSGSEVKKPGTSVKVSCTASGSVFTNYGISWVRQAPGQGLEWMGGIIPLFGAAKYAQKFQGRVTITADESTKTVYMELSRLTSKDTAIYFCAKAPRVYEYYFDQWGQGTPVTVSS
VL: EIVLTQSPGTLSLSPGERATLSCRASQSVSSSQLAWYQQKPGQAPRLIIYGASTRATGIPDRFSGSGSGTDFTLTIGRLEPEDFAVFFCQQYSTSPPTFGQGTKVDFK
% Neutralization [1]: 88.6%
% Neutralization [2]: 0%

B2: TCN-540 (5060_F05) (antibody, V domains shown)
VH: QVQLVQSGGGVVQPGRSLRLSCAASGFTFSSYAMHWVRQAPGKGLEWVAIISYDGNDQYYTDSVKGRFTISRDSSKVYLQMHRLRPEDTAVYYCAKEFETSGYFHGSFDYWGQGILVTVSS
VL: QSALTQPASVSGSPGQSITISCTGTSSDVGGYNYVSWYQQHPGKAPKLLIYEVTNWPSGVSNRFSGSKSGNTASLTISGLQAEDEADYYCSSYAGSSTWVFGGGTRVTVL
% Neutralization [1]: 3%
% Neutralization [2]: 98%

B3: TCN-550 (5096_F06) (antibody, V domains shown)
VH: QVQLQESGPGLVKPSETLSLTCTVSGASINSHYWSWIRQPPGKGLEWIGYVYYSGSTTYNPSLKSRVTLSVDTSKNQFSLNLSSVTAADTAFYYCARHPYDVLTGSGDWFDPWGQGTLVTVSS
VL: SYVLTQAPSVSVAPGQTARITCGGNAIGSKKVHWYQHKAGQAPVLVVYDDTDRPSGIPERFSGSNSWSTATLTINRVEAGDEADYYCQVWDFTIDHVVFGGGTKLTVL
% Neutralization [2]: 100%

B4: TCN-536 (5095_N01) (antibody, V domains shown)
VH: QVQLQQWGAGLLKPSETLSLTCAVYGGSFSVSGYYWSWIRQPPGRGLEWIGEISHGGSTNYNPSLKSRVTISVDTTKNQFSLRLSSVTAADTAVYYCARGTDPDTEVYCRVGNCAAFDYWGQGSLVTVSS
VL: EIILAQSPGTLSLSPGERATLSCRASQFVSTRSLAWYQQRPGQAPRLLIYGASSRATGIPDRFSGSGSGTDFTLTISRLEPEDFAVYYCQHYGYSPRYAFGQGSKVEIK
% Neutralization [1]: 81.6%
% Neutralization [2]: 99.9%

B5: TCN-560 (5084_P10) (antibody, V domains shown)
VH: EVQLVESGGGLVQPGGSLRLSCAASGFIFRNYWMSWVRQAPGKGLEWVANIKQDGREKYYVDSLRGRVNISRDNAENSLYLHMNSLRVEDTAVYFCARARMVVVTGDGFDVWGHGTMVTVSS
VL: DIQMTQSPSSLSASVGDRVTITCRASQNIKRYFNWYQQKPGKAPKLLIYAASNLENGVPSRFSGSGSGTDFTLTISSLQPEDFATYYCQQSFSKSWTFGQGTNVDIK
% Neutralization [3]: 94%

B6: TCN-538 (3206_O17) (antibody, V domains shown)
VH: QITLKESGPTLVKPTQTLTLTCVFSGFSLSITGVRVGWIRQPPGKALEWLALISWDDEKHYSPSLQSRLTITKDTSKNQVVLTMTNLDPVDTATYYCARSTDRGHVLRYFGWMLPGDAFDVWGQGTMVTVSS
VL: DIVMTQSPDFLPVSLGERATINCKSSQRVLYSSNNKNYLAWYQLKPGQPPKLIIYWASTRESGVPDRFSGSGSGTEFTLTISSLQAEDVAVYYCQQYYSRPYTFGQGTKLEIK
% Neutralization [1]: 21%
% Neutralization [2]: 0%

B7: TCN-534 (5249_B02) (antibody, V domains shown)
VH: QVQLVQSGAEVKKPGSSVKVSCRESGGTFNGYTITWVRQAPGQGLEWMGGIIPMMGTVNYAQKLQGRVTITTDYFTKTAYMDLNNLRSEDTAMYYCVKIRYTGQQLLWGQGTLVTVSS
VL: DIQMTQSPSTLSASIGDRVTITCRASQSIASWLAWYQQKPGKAPKLLIYEAVNLESGVPSRFSGSGSGTDFTLTISSLQPDDFATYFCQHYGTISQTFGGGTKVEIK
% Neutralization [1]: 65.7%
% Neutralization [2]: 0%

B8: TCN-543 (5081_G23) (antibody, V domains shown)
VH: QVHLVQSGAEVRKPGDSVKVSCKTSGYTFSTYPVAWVRQVPGQGLEWMGWISTYNGNTNFAQNFQGRVTLTTDTTTNTAYMEVRSLKFDDTAVYYCARVEGSYRDFWNNQNRFDPWGQGTLVTVSS
VL: SYVLTQPPSVSVAPGQTARISCGGSNIGGKSVHWYQQKPGQAPVLVVYDDSGRPSGIPERFSGSNSGDTATLTISRVEAGDEADYFCQVWDNFGGVFGTGTKVTVL
% Neutralization [1]: 98%
% Neutralization [2]: 73%

B9: TCN-551 (5243_D01) (antibody, V domains shown)
VH: EVQLVQSGSEVKKPGESLKISCKGSGYSFSNYWIGWVRHMPGKGLEWMGIIYPGDSDTRYSPSFQGQVTMSADKSSSTVYLQWSSLKASDTAIYYCARRGGHSFGYGSGGDTHSEFDSWGQGTLVTVSS
VL: QSVLTQSPSVSAAPGQKVTISCSGSDSNIGDYFVCWYQHLPGKPPQLLIYENNKRPSGIPDRFSGSKSGTSATLGITGIQTGDEADYYCATWDGSLSAWVFGGGTKLTVL
% Neutralization [3]: 100%

B10: TCN-545 (5082_I15) (antibody, V domains shown)
VH: QVQLQQWGAGLLKPSETLSLSCAVFGGSFSDYYWTWIRQPPGKGLEWIGEIKHSGRTNYNPSLESRVTISVDTSKNQFSLKLSSVTAADTAIYYCARGTDPDTEGYCRSGSCSAFDFWGQGTLVTVSS
VL: EIVLTQSPGTLSLSPGERATLSCRASHFVNYRSLAWYQQTPGQVPRLLIYGASTRATGIPDRFSGSGSGTDFTLTISRLEPEDFAVYFCQQYGGSPRYTFGQGTRLEIK
% Neutralization [1]: 88%
% Neutralization [2]: 99%

B11: TCN-555 (5246_L16) (antibody, V domains shown)
VH: QVQLVQSGAEVKRPGSSVKVSCTASGGIFRKNAISWVRQAPGQGLEWMGGIIAVFNTANYAQKFQNRVKITADESGNTAYMELSSLTSDDTAVYYCASHPKYFYGSGSYPDFWGQGTLVTVSS
VL: QSALTQPRSVSGSPGQSITISCTGGSSDIGASNSVSWYQQHPGKAPKLVIFDVTERPSGVPHRFSGSKSGNTASLTVSGLQPDDEADYFCCAYGGKYLVVFGGGTKVTVL
% Neutralization [3]: 48%

B12: TCN-563 (5237_B21) (antibody, V domains shown)
VH: QVQLAQSGAEVKRPGSSVKVSCTASGGIFRKNAISWVRQAPGQGLEWMGGIIAVFNTANYAQKFQGRVKITADESGNTAYMELSSLRSDDTAVYYCASHPKYFYGSGSYPDFWGQGTLVTVSS
VL: QSALTQPRSVSGSPGQSVTISCTGSSSDVGASNSVSWYQQHPGKAPKLVIYDVTERPSGVPHRFSGSKSGNTASLTVSGLQPEDEADYFCCAYGGKYLVVFGGGTKVTVL
% Neutralization [3]: 78%

B13: TCN-554 (5277_M05) (antibody, V domains shown)
VH: QVQLVQSGADLKKPGASVKVSCKASGYTFTDYYIHWVRQAPGQGLEWMGWINPESGDTKYAQKFQGRVTMTRDTSITTAYMELGRLRSDDTAVYYCARDVSTTWSWFAPWGQGTLVTVSS
VL: DIVMTQSPDSLAVSLGERATINCRSSQSIFHNSNNENYLAWYQQKPGQPPKLLIYWASTRESGVPDRFSGSGSGTDFTLTISSLQAEDVAVYFCQQYYNAPLTFGGGTKVEIK
% Neutralization [2]: 100%

B14: TCN-554 (5277_M05) (antibody, V domains shown)
VH: QVQLVQSGADLKKPGASVKVSCKASGYTFTDYYIHWVRQAPGQGLEWMGWINPESGDTKYAQKFQGRVTMTRDTSITTAYMELGRLRSDDTAVYYCARDVSTTWSWFAPWGQGTLVTVSS
VL: DIVMTQSPDSLAVSLGERATINCRSSQSIFHNSNNENYLAWYQQKPGQPPKLLIYWASTRESGVPDRFSGSGSGTDFTLTISSLQAEDVAVYFCQQYYNAPLTFGGGTKVEIK
% Neutralization [3]: 42%

B15: TCN-552 (5249_I23) (antibody, V domains shown)
VH: QVQVVQSGAEVKKPGSSVRVSCQASGGTFMNYAIIWVRRAPGQGLEWMGGIIPVFPTPNYAQMFQGRVTISTDESRSTSFLELTNLRYEDTAVYYCARRIYHGGNSGFDFWGQGTLVTVSS
VL: EIVLTQSPATLSLSPGERATLSCRASQSVGNYLAWYQQKPGQAPRLLIYDSSNRAPGIPARFSGSGSGTDFTLTISSLAPEDFAVYYCQQRSKWPPMYSFGHGTKLEIK
% Neutralization [3]: 57%

B16: TCN-553 (5261_C18) (antibody, V domains shown)
VH: QVQVVQSGTEVKKPGSSVKVSCQTSGGRFMSYAITWVRQAPGQGLEWMGGIVPVFGTANYAQKFQGRVTITTDDSTRTAYMELSSLRSEDTAVYYCGFRYGSGYGFDSWGQGTLVTVSS
VL: EIVLTQSPGTLSLSPGERATLSCRASQSVSSSYLAWYQKKPGQAPRLLIYGASTRATGIPDRFTGSGSGTDFTLSISRLEPEDFAVYYCQHFGTSVFTFGGGTKVEIK
% Neutralization [3]: 87%

B17: TCN-544 (5082_A19) (antibody, V domains shown)
VH: QVQLQESGPGLVKPSETLSLTCTVSRGSIGHYFWSWIRQPPGKGLEWIGYISYSGSTKYNPSLRSRVTISVDTSKNQFSLNLNSVTATDTALYYCAREDYDILTGAGPGMEVWGQGTTVTVSS
VL: QSMLTQPPSASGTPGQRVTISCSGSSSNIGSNTVNWFKHLPGTAPKLLIYRNDLRPSGVPDRFSGSKSGTSASLAISGLQSEDEADYYCATWDDSLNGFYVFGTGTKVTVL
% Neutralization [2]: 97%

B18: TCN-523 (5248_A17) (antibody, V domains shown)
VH: QVQLVQSGAEVKKPGSSVKVSCKASGGSFSNYAFSWVRQAPGQGLEWMGGTIPLLGTTNYAQKFQGRVTISADQFTSTAYMELGSLRSEDTAVYYCTRRKMTTAFDSWGQGTLVTVSS
VL: QPVLTQPPSASASLGASVTLTCTLSSAYSNYKVDWYQQRPGKGPRFVMRVGTGGIVGSKGDGIPDRFSVLGSGLNRYLTIKNIQEEDESDYHCGADHGSGSNFVSPYVFGGGTKLTVL
% Neutralization [3]: 69%

B19: TCN-537 (3194_D21) (antibody, V domains shown)
VH: QVQLQQWGSGLLKPSETLSLTCAVYGGSFRDDYWTWIRQPPGKGLEWIGEINHSGRTNYNPSLKSRVTISVDTSLKQFSLKVISVTAADTAVYYCARGTSHVSRYFDWLPPTNWFDPWGQGTQVTVSS
VL: DIVLTQSPGTLSLSPGERATLSCRASQSVSSSYLAWYQQKPGQAPRLVMYGAATRATGIPDRFSGSGSGPDFTLTISRLEPEDFAMYYCQQYGNSPITFGQGTRLEIK
% Neutralization [1]: 0%
% Neutralization [2]: 0%

B20: TCN-539 (5056_A08) (antibody, V domains shown)
VH: QVQLVESGGGVVQPGRSLRLSCAASEITFITYAMHWVRQAPGKGLEWVALISDDGSNKFYADSVKGRFTISRDNSKNTLYLQMNSLRAEDTAAYYCAREGVYFDSGTYRGYFDYWGQETLVTVSS
VL: EIVLTQSPATLSLSPGERATLSCRASQSVSSYLAWYQQKPGQAPRLLIYDASNRATGIPARFSGSGSGTDFTLTISSLEPEDFAVYYCQQRSHWPPITFGQGTRLEIK
% Neutralization [2]: 99%
